Results on 8 substances are retold here after paper PMC10063552.

Assay in all cases: enzyme inhibition assay (cleavage of a chromogenic substrate, fit to Morrison's tight binding equation); MMP-2ACT (0.6 nM), MMP-9CAT (3 nM) or MMP-14CAT (1 nM) incubated with 0-25 nM N-TIMP2 variant in 50 mM HEPES, 10 mM CaCl2, 0.05% Brij-35, 1 mM DTNB, pH 7.5, 1 h at 37 °C; then 100 µM chromogenic substrate, absorbance at 412 nm at 37 °C; Ki from three independent experiments
The target of assay [1] is activated MMP-2 (MMP-2ACT) (human).
Assay [2] addresses human MMP-14 catalytic domain (MMP-14CAT) (human) (UniProt P50281).
Assay [3] addresses human MMP-9 catalytic domain (MMP-9CAT) (human) (UniProt P14780).

Consider “N-TIMP2-S2HqAla (from UniProt P16035 27-153) (domain or fragment)”, for which the Ki (usually a dissociation constant, usually derived from enzyme kinetics or from competition with a known ligand) in assay [1] worked out at 97.7 nM; in assay [2], 97.7 nM; in assay [3], 70.4 nM.
As to “N-TIMP2-S69HqAla (from UniProt P16035 27-153) (domain or fragment)”, the Ki was determined as 0.606 nM in assay [1], 11.5 nM in assay [2] and 0.449 nM in assay [3].
The matching figures for “N-TIMP2-Y36HqAla (from UniProt P16035 27-153) (domain or fragment)”: 0.413 nM, 4.72 nM and 0.543 nM.
For “N-TIMP2-S2DOPA (from UniProt P16035 27-153) (domain or fragment)”, in that order: 3.14 nM, 14.6 nM and 0.623 nM.
As for “N-TIMP2-A70DOPA (from UniProt P16035 27-153) (domain or fragment)”, the Ki in assay [1] is 0.785 nM; in assay [2], 10.6 nM; in assay [3] it was 0.452 nM.
Turning to “N-TIMP2-A70HqAla (from UniProt P16035 27-153) (domain or fragment)”, the Ki came to 16.7 nM in assay [1], 27.2 nM in assay [2] and 1.93 nM in assay [3].
Take “N-TIMP2-S69DOPA (from UniProt P16035 27-153) (domain or fragment)”: the Ki in assay [1] amounted to 0.46 nM; in assay [2], 21.4 nM; in assay [3], 0.468 nM.
For “N-TIMP2-L100DOPA (from UniProt P16035 27-153) (domain or fragment)”, in that order: 1 nM, 14.2 nM and 0.849 nM.
